Source: patent US20130344053A1, “Methods of Modifying Insulin Signaling Using Biliverdin Reductase (BVR) and BVR Derived Peptides” (University of Rochester, priority 2010, published 2013)
Substitutions are numbered along the chain they refer to.

Assays:
Type in all cases: biochemical
[1] = molecular target: T1, insulin receptor kinase (IRK) (Homo sapiens, UniProt P06213); experiment: BVR phosphorylation by the insulin receptor tyrosine kinase (IRK); settings: for reduction of extent of BVR phosphorylation by IRK compared with wtBVR: tyrosine point mutant as IRK substrate, 2 h at 30° C.; for BVR phosphorylation by IRK (mutant as substrate): tyrosine point or double mutant as IRK substrate
T1 construct: GST-hBVR fusion protein and the 48 kDa cytoplasmic domain of the β-subunit of IRK; purchased Biomol International (Plymouth, Pa.)
Experimental: FIGS. 7A-B illustrate BVR as a substrate for insulin receptor kinase. […] 10 μg purified wtBVR was incubated in 100 μl kinase assay buffer (pH 8.0) containing 0.1 μg IRK, 10 μM ATP, and 20 μCi [^32P]-ATP at 25° C. up to 4 h. The reaction was terminated by the addition of Laemmli buffer at different points of time as indicated. Samples were separated using 8% SDS-PAGE gel and transferred onto PVDF filter, and phosphorylated protein bands were visualized by autoradiography. […] From left to right lane 1, wtBVR plus IRK in the presence of 50 mM EDTA (pH 8.0); lane 2, wtBVR plus IRK; lane 3, wtBVR in the absence of IRK. The reaction mixtures were subjected to SDS-PAGE electrophoresis and transferred onto a polyvinylidene fluoride (“PVDF”) filter. The blot was immuno-stained with anti-phosphotyrosine antibodies and ECL detection system was used to visualize phosphorylated tyrosines. […] In FIG. 8A the Y^198 residue of BVR is phosphorylated by IRK. Purified wtBVR and Y^198 mutant BVR were incubated with IRK at 30° C. for 2 h. Samples were subjected to SDS-PAGE electrophoresis and processed as described in FIG. 8B. FIG. 8B is a time course of Y^198 mutant BVR phosphorylation by IRK. A purified preparation of human BVR that carried Y^198 mutation was incubated with IRK for up to 3 h as described in FIG. 7A. Samples taken at the indicated time-points were analyzed for detection of phosphorylated proteins as above. […] Subsequently, samples were subjected to SDS-PAGE, stained with Coomassie blue and visualized bands were excised and used for measurement of radioactive content. The experiments were repeated three times. […] The indicated double mutants of BVR were used as substrates for IRK and analysis was carried out as in FIG. 8A. FIGS. 10A-B illustrate that autophosphorylation of BVR is an Mn^+2 dependant kinase reaction. […] The effects of different metal ions (30 mM MnCl2, 20 mM MgCl2, 20 mM CaCl2, 20 mM Zn acetate) and their combinations were analyzed as indicated in the text. […] The reactions were carried out in HEPES buffer (pH 8.0) in the presence of 20 mM MgCl2 as described in the Examples. Phosphorylation of BVR by IRK was examined using GST-hBVR fusion protein and the 48 kDa cytoplasmic domain of the β-subunit of IRK. BVR (5 μg) was incubated in 50 μl of IRK kinase buffer containing 50 mM HEPES (pH 8.0), 20 mM MgCl2, 1 mM DTT in the presence of 0.05 μg IRK and 10 μM ATP labeled with 10 μCi [γ-^32P]-ATP. The reaction was started with the addition of labeled ATP and incubated for 2-4 h. Reactions were terminated by addition of Laemmli sample buffer and boiled for 3 min. Samples were subjected to 8% SDS-PAGE and transferred to PVDF membranes for autoradiography.

BVR = molecular target: T2, BVR (Homo sapiens, UniProt P53004, A154S/E160D/G155D); experiment: Phosphorylation of IRS-1 peptides by BVR; settings: peptide as substrate for BVR kinase
T2 construct: made in house; host or cells: E. coli (pGEX 4T-2/hBVR)
T2 sequence (P53004 3-296 A154S/G155D/E160D): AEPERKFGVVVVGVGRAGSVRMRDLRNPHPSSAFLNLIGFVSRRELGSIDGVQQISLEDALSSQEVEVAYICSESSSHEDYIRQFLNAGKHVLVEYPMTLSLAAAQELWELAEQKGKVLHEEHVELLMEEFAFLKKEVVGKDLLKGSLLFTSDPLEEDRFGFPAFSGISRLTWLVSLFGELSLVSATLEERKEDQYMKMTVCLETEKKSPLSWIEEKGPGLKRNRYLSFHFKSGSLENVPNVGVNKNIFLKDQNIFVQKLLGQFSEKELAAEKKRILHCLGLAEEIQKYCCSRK
Experimental: (§1) To detect autophosphorylation of BVR, GST-hBVR of wild type (wt) and mutant variants were incubated in 50 mM HEPES buffer (pH 8.4) in the presence of 30 mM MnCl2 and 1 mM DTT for 2 h at 30° C. The reaction was started with the addition of 10 μM ATP labeled with 10 μCi [γ-^32P]-ATP and was stopped with the addition of Laemmli sample buffer. Samples were boiled for 3 min and applied to a 8% SDS-PAGE gels, transferred to a PVDF membrane, and then visualized by autoradiography. To measure kinase activity, GST-BVR (5 μg) was incubated in 5 μl kinase buffer containing 50 mM HEPES buffer (pH 8.4), 20 mM MgCl2, 30 mM MnCl2, 1 mM DTT and 10 μM ATP labeled with 10 μCi [γ-^32P]-ATP in the presence of 5 μg substrates: IRS-1 or Raytide or poly glu/tyr (4:1) for 2 h at 30° C. The reaction was started with the addition of ATP and terminated by adding 120 μl 10% H3PO4. 100 μl aliquots were directly transferred to P81 Whatman filters which were subsequently washed extensively in 0.75% phosphoric acid at room temperature. Finally, the filters were submerged in acetone for 5 min, dried, and retained counts were measured using a Beckman LS 6500 liquid scintillation counter (Beckman Coulter, Fullerton, Calif.).
The following experiments were conducted to determine whether IRS is a substrate for serine kinase activity of BVR or its tyrosine kinase activity. […]

human BVR = experiment: BVR autophosphorylation; settings: pH 8.4, 30 mM MnCl2, 2 h at 30° C.
Experimental: In FIG. 9A, effect of tyrosine mutations of BVR on its autophosphorylation is shown. Human wtBVR and BVR with mutations in tyrosine were used in the experiment to determine autophosphorylation of BVR. The reactions were performed as described in the Examples. FIG. 9B is a graph showing that BVR tyrosine kinase activity was checked by incubating 5 μg purified BVR with 5 μg Raytide in 50 μl kinase buffer containing 10 μM labeled ATP for 2 h at 30° C. The aliquots of the reaction were transferred onto P81 Whatman filters and radioactivity due to phosphorylation was measured using a scintillation counter.
FIGS. 10A-B illustrate that autophosphorylation of BVR is an Mn^+2 dependant kinase reaction. […] The effects of different metal ions (30 mM MnCl2, 20 mM MgCl2, 20 mM CaCl2, 20 mM Zn acetate) and their combinations were analyzed as indicated in the text. […] Phosphorylation of wtBVR by IRK in the presence of tyrosine kinase inhibitor genestein (200 μM); DMSO was used as the vehicle for genestein and was included in the control reaction mixture. The reactions were carried out in HEPES buffer (pH 8.0) in the presence of 20 mM MgCl2 as described in the Examples.
as §1, with “To measure kinase activity, GST-BVR (5 μg) was incubated in 5 μl kinase buffer containing 50 mM HEPES buffer (pH 8.4), 20 mM MgCl2, 30 mM MnCl2, 1 mM DTT and 10 μM ATP labeled with 10 μCi [γ-^32P]-ATP in the presence of 5 μg substrates: IRS-1 or Raytide or poly glu/tyr (4:1) for 2 h at 30° C.” left out

T1 sequence (P06213 980-1382 limits assumed): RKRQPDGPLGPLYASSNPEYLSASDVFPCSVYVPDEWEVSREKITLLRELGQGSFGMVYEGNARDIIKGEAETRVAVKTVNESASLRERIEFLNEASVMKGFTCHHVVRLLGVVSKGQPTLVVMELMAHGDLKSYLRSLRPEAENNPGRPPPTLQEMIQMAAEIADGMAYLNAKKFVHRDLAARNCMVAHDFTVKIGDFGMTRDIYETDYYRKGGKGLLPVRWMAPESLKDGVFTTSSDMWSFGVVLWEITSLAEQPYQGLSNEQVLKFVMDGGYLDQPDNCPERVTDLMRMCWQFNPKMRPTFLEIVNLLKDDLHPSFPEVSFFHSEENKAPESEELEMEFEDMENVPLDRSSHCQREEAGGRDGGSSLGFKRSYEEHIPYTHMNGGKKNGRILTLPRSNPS

## O=C(O)CN(CCN(CC(=O)O)CC(=O)O)CC(=O)O [EDTA, reference compound]
[1]; 50 mM EDTA (pH 8.0), 30° C., 2 h
  phosphorylation of BVR by IRK in presence of EDTA: abolished phosphorylation of BVR by IRK

## O=c1c(-c2ccc(O)cc2)coc2cc(O)cc(O)c12 [Genestein, reference compound]
[1]; genestein 200 μM, HEPES pH 8.0, 20 mM MgCl2
  BVR phosphorylation mediated by IRK in presence of PTK inhibitor: significantly inhibited BVR phosphorylation mediated by IRK

## Arg-Thr-Glu-Ser^307-Ile-Thr-Ala-Thr-Ser^312-Pro-Ala-Ser^315-Met-Val-Gly-Gly-Lys-Pro (RTESITATSPASMVGGKP; Biliverdin reductase peptide) [second IRS-1 peptide (#2), IRS-1 peptide containing S^307, S^312, and S^315]
BVR
  phosphorylation of IRS-1 peptide by BVR: 1198±230 cpm

## Lys-Lys-His-Ala-Asp-Asp-Gly-Ala-Met-Pro-Met-Ser^312-Pro-Gly-Val-Ala (KKHADDGAMPMSPGVA; Biliverdin reductase peptide) [mutant IRS-1 peptide (#1), mutant IRS-1 peptide without tyrosine, only S^616 maintained]
BVR
  phosphorylation of IRS-1 peptide by BVR: 1049±78 cpm

B1: Y^228: human BVR point mutant NRYLS to NRFLS (protein, UniProt P53004 3-296, looked up, variant Y228F)
Biliverdin reductase A: T2 sequence (P53004 3-296 A154S/G155D/E160D) with S152A, D153G, D158E, Y226F
[1]
  reduction of extent of BVR phosphorylation by IRK compared with wtBVR: 40%
Human BVR
  autophosphorylation of BVR (mutants): did not result in significant changes in autophosphorylation of BVR

B2: Y^198 plus Y^228: human BVR double mutant DQFMK and NRFLS (protein, UniProt P53004 3-296, looked up, variant Y198F Y228F)
Biliverdin reductase A: T2 sequence (P53004 3-296 A154S/G155D/E160D) with S152A, D153G, D158E, Y196F, Y226F
[1]
  BVR phosphorylation by IRK (mutant as substrate): little or no phosphorylation was detected

B3: Y^291: human BVR point mutant QKYCC to QKFCC (protein, UniProt P53004 3-296, looked up, variant Y291F)
Biliverdin reductase A: T2 sequence (P53004 3-296 A154S/G155D/E160D) with S152A, D153G, D158E, Y289F
[1]
  reduction of extent of BVR phosphorylation by IRK compared with wtBVR: 49%
Human BVR
  autophosphorylation of BVR (mutants): did not result in significant changes in autophosphorylation of BVR

B4: Y^198 plus Y^291: human BVR double mutant DQFMK and QKFCC (protein, UniProt P53004 3-296, looked up, variant Y198F Y291F)
Biliverdin reductase A: T2 sequence (P53004 3-296 A154S/G155D/E160D) with S152A, D153G, D158E, Y196F, Y289F
[1]
  BVR phosphorylation by IRK (mutant as substrate): little or no phosphorylation was detected
